Measured values as given in US20220175647A1, “COSMETIC PREPARATION CONTAINING ULTRAVIOLET WAVELENGTH CONVERSION MATERIAL AND WATER-SOLUBLE THICKENING AGENT” (Shiseido Company, Ltd., priority 2019, published 2022).
Values joined by “and” are separate entries in the source; they are usually repeats but may differ in a detail not shown here. Equal values may be shown once.

Tests used:
[1] = Absorption and emission spectrum peak wavelengths of UV wavelength conversion substances; type: physicochemical
Human dermal fibroblasts [2] = experiment: Cell activity (AlamarBlue) of cells UV-irradiated through a solution of UV wavelength conversion substance; type: cell-based; settings: UV 0 to 100 mJ/cm^2, FIG. 3
Protocol: The UV wavelength conversion substances (3) and (4) were dispersed in alcohol to prepare 5% and 10% dispersions.
(§1) 1. Human dermal fibroblasts and human skin keratinocytes purchased from Kurabo Industries Ltd. were used. A cell suspension (1 mL) stored in liquid nitrogen was thawed in a water bath (37° C.) to an extent that small ice pellets remained, and then diluted with 9 mL of warm medium. 2. The diluted suspension was mixed gently and then transferred to a T75 flask and incubated overnight at 37° C. 3. The next day, the medium was replaced with 10 mL of fresh medium. 4. The medium was replaced periodically (once every 2 days for fibroblasts and once every 2 to 3 days for keratinocytes) and cell proliferation was continued. Meanwhile, the cells were observed using a microscope, and it was confirmed that the cells grew in the correct form. 5. After the cells reached about 80% confluence, the cells were passaged. The cells were passaged by washing the cells once with 10 mL of warm PBS, adding 5 mL of warm trypsin to a T75 flask, covering the bottom of the flask with a trypsin solution, followed by aspirating at room temperature for 1 minute. 6. The flask was allowed to stand in an oven at 37° C. for (maximum) 2 minutes for fibroblasts and (maximum) 7 minutes for keratinocytes. The cells were observed using a microscope and confirmed to be small and oval. 7. […]

Human dermal fibroblasts [3] = experiment: Restoration of cell activity decreased by prior UV irradiation (AlamarBlue); type: cell-based; settings: pre-irradiation 400 mJ/cm^2 without substance, then UV 0 to 200 mJ/cm^2 through 0.4% or 2% C-phycocyanin; effect equivalent at both concentrations; FIG. 5
Protocol: as §1, with “7. Thereafter, the side of the T75 flask was lightly tapped to release the cells.” for “7.”

| Substance | absorption spectrum peak wavelength [1] | emission spectrum peak wavelength [1] | cell activity (relative fluorescence intensity, AlamarBlue) (Human dermal fibroblasts [2]; 0.4% C-phycocyanin solution) | cell activity (relative fluorescence intensity, AlamarBlue) (Human dermal fibroblasts [2]; 2% C-phycocyanin solution, compared to no UV irradiation) | cell activity after activity was once decreased by UV (Human dermal fibroblasts [3]) |
| --- | --- | --- | --- | --- | --- |
| B-phycoerythrin | 305 nm | 570 nm and 610 nm |  |  |  |
| C-phycocyanin | 350 nm | 640 nm and 700 nm | the decrease in cell activity was suppressed | the cell activity was even increased | cell activity was recovered |
